Test results: patent US11629364B2, “Methods for synthesizing anticoagulant polysaccharides” (OPTIMVIA, LLC, priority 2019, dated 2023)
Where a chain is given by its changes, count along the chain named.

B1: SEQ ID NO: 26: engineered aryl sulfate-dependent 3OST enzyme, mutant of isoform 1 of the human 3OST enzyme (protein)
chain: MGTASNGSTQQLPQTIIIGVGHGGTRALLEMLSLHPDVAAAENEVHFFDWEEHYSQGLGWYLTQMPFSSPHQLTVEKTHSYFTSPKVPERIHSMNPTIRLLLILRDPSERVLSAYTHMLYNHLQKHKPYPPIEDLLMRDGRLNLDYTGLNRSLYHAHMLNWLRFFPLGHIHIVDGDRLIRDPFPEIQKVERFLKLSPQINASNFYFNKTKGFYCLRDSGKDRCLHESKGRAHPQVDPKLLDKLHEYFHEPNKKFFKLVGRTFDWH
modifications: Amino acid sequence encoding for engineered arylsulfate-dependent 3-O-sulfotransferase variant 2
notes: engineered aryl sulfate-dependent 3OST enzyme, mutant of isoform 1 of the human 3OST enzyme
B2: SEQ ID NO: 24: engineered aryl sulfate-dependent 3OST enzyme, mutant of isoform 1 of the human 3OST enzyme (protein)
chain: B1 chain with T147V
modifications: Amino acid sequence encoding for engineered arylsulfate-dependent 3-O-sulfotransferase variant 1
notes: as for B1
B3: SEQ ID NO: 56: full-length mutant of isoform 5 of the mouse 3OST enzyme, SEQ ID NO: 24 mutations (protein)
chain: MLFKQQVWLRQKLLVLGSLAVGSLLYLVARVGSLDRLQPICPVESRFGGAHNQAELPLRALQFKRGLLHEFRKGNSSKEQVHLHDLVQQLPKAIIIGVGHGGTRALLEMLNLHPAVVKASQEIHFFDNDENYAKGIEWYRKKMPFSYPQQITIEKSHSYFITEEVPERIYKMNSSIKLLIIVREPTTRAISAYTHMLEGKERKNKTYYKFEKLAIDPNTCEVNTKYVGVRTSIYTKHLERWLKYFPIEQFHIVDGDRLITEPLPELQLVEKFLNLPPRISQYNLYFNATRGFYCLRFNIIFNKCLAGSKGRIHPEVDPSVITKLRKFFHPFNQKFYQITGRTLNWP
modifications: Amino acid sequence encoding for engineered arylsulfate-dependent 3-O-sulfotransferase variant 8
B4: SEQ ID NO: 58: full-length mutant of isoform 5 of the mouse 3OST enzyme, SEQ ID NO: 28 mutations (protein)
chain: B3 chain with A192L, Y193G, M196L, G199V, V227T
modifications: Amino acid sequence encoding for engineered arylsulfate-dependent 3-O-sulfotransferase variant 10
B5: SEQ ID NO: 57: full-length mutant of isoform 5 of the mouse 3OST enzyme, SEQ ID NO: 26 mutations (protein)
chain: B3 chain with V227T
modifications: Amino acid sequence encoding for engineered arylsulfate-dependent 3-O-sulfotransferase variant 9
B6: SEQ ID NO: 52: mutant of isoform 1 of the pig 3OST enzyme, SEQ ID NO: 24 mutations (protein)
chain: MGVAPNGSAQQLPQTIIIGVGHGGTRALLEMLSLHPDVAAAENEVHFFDWEEHYSHGLGWYLSQMPFSWPHQLTVEKTHSYFTSPKVPERVYSMNPSIRLLLILRDPSERVLSLGTHLFYVHMQKHKPYPSIEEFLVRDGRLNVDYTGLNRSLYHVHMQNWLRFFPLRHIHIVDGDRLIRDPFPEIQKVERFLKLSPQINASNFYFNKTKGFYCLRDSGRDRCLHESKGRAHPQVDPKLLNKLHEYFHEPNKKFFELVGRTFDWH
modifications: Amino acid sequence encoding for engineered arylsulfate-dependent 3-O-sulfotransferase variant 5
B7: SEQ ID NO: 53: mutant of isoform 1 of the pig 3OST enzyme, SEQ ID NO: 26 mutations (protein)
chain: B6 chain with L114A, G115Y, L118M, V121N
modifications: Amino acid sequence encoding for engineered arylsulfate-dependent 3-O-sulfotransferase variant 6
B8: SEQ ID NO: 54: mutant of isoform 1 of the pig 3OST enzyme, SEQ ID NO: 28 mutations (protein)
chain: B6 chain
modifications: Amino acid sequence encoding for engineered arylsulfate-dependent 3-O-sulfotransferase variant 7
B9: SEQ ID NO: 41: mutant of the human 2OST enzyme carrying the SEQ ID NO: 14 mutations (protein)
chain: MDEEEDMVIIYNRVPHTASTSFTNIAYDLCAKNKYHVLHINTTKNNPVMSLQDQVRFVKNITSWKEMKPGFYHGHVSYLDFAKFGVKKKPIYINVIRDPIERLVSYYYHLRFGDDYRPGLRRRKQGDKKTFDECVAEGGSDCAPEKLWLQIPFFCGHSSECWNVGSRWAMDQAKYNLINEYFLVGVTEELEDFIMLLEAALPRFFRGATELYRTGKKSHLHKTTEKKLPTKQTIAKLQQSDIWKMENEFYEFALEQFQFIRAHAVREKDGDLYILAQNFFYEKIYPKSN
modifications: Amino acid sequence encoding for engineered arylsulfate-dependent 2-O-sulfotransferase variant 3
B10: SEQ ID NO: 42: mutant of the human 2OST enzyme carrying the SEQ ID NO: 16 mutations (protein)
chain: B9 chain with P15H, H16R, T20H, N45G, H75P, H109F, D114S, Y116K, R122M
modifications: Amino acid sequence encoding for engineered arylsulfate-dependent 2-O-sulfotransferase variant 4

Legend:
Type in all cases: biochemical
[1] = 3OST activity: 3-O sulfated products detected by LCMS after lyase digestion; details: for abundance of 3-O sulfation in product: relative to the commercial heparin standard; for 3OST activity: N,2,3,6-HS products by MS and/or NMR: procedures of Example 5 and/or Example 6, expected
Protocol: A study was conducted in accordance with embodiments of the present disclosure to confirm 3OST activity of enzymes comprising the amino acid sequence of SEQ ID NO: 24, SEQ ID NO: 26, or SEQ ID NO: 28 by detecting the presence of 3-O sulfated polysaccharide products as a result of their sulfotransfer reaction, using a reaction, using a similar LCMS procedure as in Example 3, except that the sulfo acceptor polysaccharide was commercially-available heparin (CAS code: 9041-08-1, available from Millipore Sigma). Even though the unmodified heparin contains ˜3.5% (w/w) of 3-O sulfated glucosamine residues, about ˜60% of the glucosamine residues are N,6-sulfated and are adjacent to a 2-O sulfated hexuronic acid residue, as in Formula X. Consequently, these N,6-sulfated glucosamine residues can still be 3-O sulfated.

[2] = 3OST activity confirmed by 1H NMR; details: PNS as aryl sulfate compound
Protocol: Each enzyme was purified according to the procedure of Example 1. To each purified protein solution, 20 mg of an aryl sulfate compound (PNS or NCS) dissolved in 2 mL of reaction buffer (50 mM MES pH 7.0, 2 mM CaCl2)) was added to the protein solution and incubated at 37° C. for 10 min. 2.5 mL of 2 mg/mL solution of the commercial heparin polysaccharide utilized in Example 5 was added to protein/donor solution and incubated overnight at 37° C.
Each reaction was centrifuged at 5,000×g for 10 min, applied to a pre-wetted 30K MWCO Amicon-15 filter and centrifuged at 5,000×g for 10 min. The filter was washed once with 2 mL water, and centrifuged again. The filtrate was added to a 1K MWCO Dialysis membrane, dialyzed for 2 days in Milli-Q water, with water changes at 1 h, 2 h, 8 h, 16 h, 32 h, and then lyophilized. The dry, white powder was resuspended in 400 μL D20, lyophilized to remove exchangeable protons, then resuspended in 600 μL D2O and transferred to NMR tubes (Wilmad, 0.38 mm×7″). To determine if sulfotransfer took place, ^1H NMR spectra were obtained on a Bruker 600 MHz NMR, 32 scans, with water suppression. Within FIG. 30, the 3-O positions of any of the glucosamine residues can be sulfated by the 3OST enzyme. The sulfated 3-O position is circled in the central polysaccharide. […]

[3] = 2OST activity: 2-O sulfated products detected by LCMS after lyase digestion; details: procedures of Example 3; expected
Protocol: A study was conducted in accordance with embodiments of the present disclosure to confirm 2OST activity of enzymes comprising the amino acid sequence of SEQ ID NO: 14 or SEQ ID NO: 16 by detecting the presence of 2-O sulfated polysaccharide products formed as a result of their sulfotransfer reaction, using a similar procedure as in Example 2, except that the sulfo acceptor polysaccharide was commercial heparin in which the 2-O sulfate groups had been selectively removed by chemical means (product DSH001/2, available from Galen Laboratory Supplies) and analysis of each of the digested samples containing sulfated products was conducted using mass spectrometry, coupled with SAX-based high performance liquid chromatography (LCMS).
Disaccharides obtained by digesting the 2-O sulfated products using the carbon-oxygen lyases having the amino acid sequence of SEQ ID NO: 30, SEQ ID NO: 31, and SEQ ID NO: 32 and according to the procedure described above in Example 2 were quantified on a Shimadzu LCMS-8050 Triple Quadrupole Liquid Chromatograph Mass Spectrometer. 100 ng of each of the digested samples, diluted in 10 mM ammonium bicarbonate (pH 10). The disaccharides were separated on a Thermo Hypercarb HPLC column (100×2.1 mm, 5 μm). […]

| Molecule | 3OST activity: N,2,3,6-HS products by MS and/or NMR [1] | also measured |
| --- | --- | --- |
| B1 | – | 3OST sulfotransferase activity with NCS ([1]; NCS as aryl sulfate compound): active as a sulfotransferase; abundance of 3-O sulfation in product [1]: higher abundance of 3-O sulfation; 3OST sulfotransferase activity with PNS (NMR) [2]: 3-O sulfotransferase activity |
| B2 | – | abundance of 3-O sulfation in product [1]: higher abundance of 3-O sulfation |
| B3 | confirm the presence of N,2,3,6-HS products | – |
| B4 | confirm the presence of N,2,3,6-HS products | – |
| B5 | confirm the presence of N,2,3,6-HS products | – |
| B6 | confirm the presence of N,2,3,6-HS products | – |
| B7 | confirm the presence of N,2,3,6-HS products | – |
| B8 | confirm the presence of N,2,3,6-HS products | – |
| B9 | – | 2OST activity: N,2-HS products by MS [3]: confirm the presence of N,2-HS products |
| B10 | – | 2OST activity: N,2-HS products by MS [3]: confirm the presence of N,2-HS products |
